Test results from publication PMC9482650, “Quantitative fragmentomics allow affinity mapping of interactomes” (Nature Communications, 2022).

Legend:
Assay in all cases: holdup assay
Design in all cases: key: below the threshold = too weak to quantify, mostly under pKd 3.1 to 4
Q9C0E4 = conditions: plain residues with an end cap or a label only (N-terminal biotin on a linker: ttds)
Q6ZWJ1 = conditions: plain residues with an end cap or a label only (N-terminal biotin on a linker: ttds)
Q9NPB6 = conditions: plain residues with an end cap or a label only (N-terminal biotin on a linker: ttds)
Q70Z35 = conditions: plain residues with an end cap or a label only (N-terminal biotin on a linker: ttds)
Q96SB3 = conditions: plain residues with an end cap or a label only (N-terminal biotin on a linker: ttds)
O43166 = conditions: plain residues with an end cap or a label only (N-terminal biotin on a linker: ttds)
O75970 = conditions: plain residues with an end cap or a label only (N-terminal biotin on a linker: ttds)
Q96FS4 = conditions: plain residues with an end cap or a label only (N-terminal biotin on a linker: ttds)
Q8TEW0 = conditions: plain residues with an end cap or a label only (N-terminal biotin on a linker: ttds)
O00560 = conditions: plain residues with an end cap or a label only (N-terminal biotin on a linker: ttds)
O15021 = conditions: plain residues with an end cap or a label only (N-terminal biotin on a linker: ttds)
Q9UDY2 = conditions: plain residues with an end cap or a label only (N-terminal biotin on a linker: ttds)
Q9UMS6 = conditions: plain residues with an end cap or a label only (N-terminal biotin on a linker: ttds)
Q9NR12 = conditions: plain residues with an end cap or a label only (N-terminal biotin on a linker: ttds)
O60759 = conditions: plain residues with an end cap or a label only (N-terminal biotin on a linker: ttds)
Q8IUC4 = conditions: plain residues with an end cap or a label only (N-terminal biotin on a linker: ttds)
Q5TCQ9 = conditions: plain residues with an end cap or a label only (N-terminal biotin on a linker: ttds)
Q12923 = conditions: plain residues with an end cap or a label only (N-terminal biotin on a linker: ttds)
Q13368 = conditions: plain residues with an end cap or a label only (N-terminal biotin on a linker: ttds)
Q13009 = conditions: plain residues with an end cap or a label only (N-terminal biotin on a linker: ttds)
Q9ULJ8 = conditions: plain residues with an end cap or a label only (N-terminal biotin on a linker: ttds)
Q92614 = conditions: plain residues with an end cap or a label only (N-terminal biotin on a linker: ttds)
Q9Y3R0 = conditions: plain residues with an end cap or a label only (N-terminal biotin on a linker: ttds)
Q96JB8 = conditions: plain residues with an end cap or a label only (N-terminal biotin on a linker: ttds)
Q9P227 = conditions: plain residues with an end cap or a label only (N-terminal biotin on a linker: ttds)
Q9H190 = conditions: plain residues with an end cap or a label only (N-terminal biotin on a linker: ttds)
LNX1_4, Q8TBB1 = biological target: LNX1_4, Q8TBB1
LNX2_1, Q8N448 = biological target: T1, LNX2_1, Q8N448
T1 sequence (Q8N448 228-328, limits assumed, looked up): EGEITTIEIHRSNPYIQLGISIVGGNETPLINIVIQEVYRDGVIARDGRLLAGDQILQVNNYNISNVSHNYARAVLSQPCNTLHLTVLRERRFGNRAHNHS

Q8TB45 = conditions: plain residues with an end cap or a label only (N-terminal biotin on a linker: ttds)
Q8TDM6 = conditions: plain residues with an end cap or a label only (N-terminal biotin on a linker: ttds)
[1] = plain residues with an end cap or a label only (N-terminal biotin on a linker: none)
[2] = plain residues with an end cap or a label only (N-terminal biotin on a linker: ttds)

Sequence of LNX1_4, Q8TBB1 (Q8TBB1 631-726): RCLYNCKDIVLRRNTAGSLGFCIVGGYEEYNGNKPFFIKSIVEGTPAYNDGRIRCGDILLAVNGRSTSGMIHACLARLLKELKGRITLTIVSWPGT

In the case of RLPKIKETTV [FRMPD4, Q14CM0], the pKd (Q9C0E4) is reported as “below the threshold”, the pKd (Q6ZWJ1) is reported as “below the threshold” and the pKd (Q9NPB6) is reported as “below the threshold”. The pKd (Q70Z35) was “below the threshold”, the pKd (Q96SB3) was “below the threshold” and the pKd (O43166) was “below the threshold”. The pKd (O75970) was “below the threshold”, the pKd (Q96FS4) was “below the threshold” and the pKd (Q8TEW0) was “below the threshold”. The pKd (O00560) was “below the threshold”, the pKd (O15021) was “below the threshold” and the pKd (Q9UDY2) was “below the threshold”. The pKd (Q9UMS6) was “below the threshold”, the pKd (Q9NR12) was “below the threshold” and the pKd (O60759) was “below the threshold”. For the same binder, the pKd (Q8IUC4) was “below the threshold”, the pKd (Q5TCQ9) was “below the threshold” and the pKd (Q12923) was “below the threshold”. The pKd (Q13368) was “below the threshold”, the pKd (Q13009) was “below the threshold” and the pKd (Q9ULJ8) was “below the threshold”. The pKd (Q92614) was “below the threshold”, the pKd (Q9Y3R0) was “below the threshold” and the pKd (Q96JB8) was “below the threshold”. The pKd (Q9P227) was “below the threshold” and the pKd (Q9H190) was “below the threshold”.

For NLNSSRVPDLLV [SARS-CoV2-E, P0DTC4], the pKd (LNX1_4, Q8TBB1; [1]) was “below the threshold” and the pKd (LNX2_1, Q8N448; [1]) was “below the threshold”.

In the case of RPLPRKVSQL [DOCK4, Q8N1I0], the pKd (Q9C0E4) is reported as “below the threshold”, the pKd (Q6ZWJ1) is reported as “below the threshold” and the pKd (Q9NPB6) is reported as “below the threshold”. For the same binder, the pKd (Q70Z35) was “below the threshold”, the pKd (Q96SB3) was “below the threshold” and the pKd (O43166) was “below the threshold”. For the same binder, the pKd (O75970) was “below the threshold”, the pKd (Q96FS4) was “below the threshold” and the pKd (Q8TEW0) was “below the threshold”. For the same binder, the pKd (O00560) was “below the threshold”, the pKd (O15021) was “below the threshold” and the pKd (Q9UDY2) was “below the threshold”. The pKd (Q9UMS6) was “below the threshold”, the pKd (Q9NR12) was “below the threshold” and the pKd (O60759) was “below the threshold”. The pKd (Q8IUC4) was “below the threshold”, the pKd (Q5TCQ9) was “below the threshold” and the pKd (Q12923) was “below the threshold”. The pKd (Q13368) was “below the threshold”, the pKd (Q13009) was “below the threshold” and the pKd (Q9ULJ8) was “below the threshold”. For the same binder, the pKd (Q92614) was “below the threshold”, the pKd (Q9Y3R0) was “below the threshold” and the pKd (Q96JB8) was “below the threshold”. For the same binder, the pKd (Q9P227) was “below the threshold” and the pKd (Q9H190) was “below the threshold”.

For SKPTRRETEV [HPV35-E6, P27228], the pKd (LNX1_4, Q8TBB1; [2]) was 3.49 and the pKd (LNX2_1, Q8N448; [2]) was “below the threshold”.

In the case of QRQARSETLV [HPV59-E6, Q81964], the pKd (Q9C0E4) is reported as “below the threshold”, the pKd (Q6ZWJ1) is reported as “below the threshold” and the pKd (Q9NPB6) is reported as “below the threshold”. For the same binder, the pKd (Q70Z35) was “below the threshold”, the pKd (Q96SB3) was “below the threshold” and the pKd (O43166) was “below the threshold”. For the same binder, the pKd (O75970) was “below the threshold”, the pKd (Q96FS4) was “below the threshold” and the pKd (Q8TB45) was “below the threshold”. The pKd (Q8TEW0) was “below the threshold”, the pKd (O00560) was “below the threshold” and the pKd (O15021) was “below the threshold”. For the same binder, the pKd (Q9UDY2) was “below the threshold”, the pKd (Q9UMS6) was “below the threshold” and the pKd (Q9NR12) was “below the threshold”. The pKd (O60759) was “below the threshold”, the pKd (Q8IUC4) was “below the threshold” and the pKd (Q5TCQ9) was “below the threshold”. The pKd (Q12923) was “below the threshold”, the pKd (Q13368) was “below the threshold” and the pKd (Q13009) was “below the threshold”. For the same binder, the pKd (Q9ULJ8) was “below the threshold”, the pKd (Q92614) was “below the threshold” and the pKd (Q9Y3R0) was “below the threshold”. The pKd (Q96JB8) was “below the threshold”, the pKd (Q9P227) was “below the threshold” and the pKd (Q9H190) was “below the threshold”. The pKd (Q8TDM6) was “below the threshold”.

For RHTTSTETAV [HPV30-E6, P36809], the pKd (Q9C0E4) was “below the threshold”, the pKd (Q6ZWJ1) was “below the threshold” and the pKd (Q9NPB6) was “below the threshold”. The pKd (Q70Z35) was “below the threshold”, the pKd (Q96SB3) was “below the threshold” and the pKd (O43166) was “below the threshold”. The pKd (O75970) was “below the threshold”, the pKd (Q96FS4) was “below the threshold” and the pKd (Q8TB45) was “below the threshold”. The pKd (Q8TEW0) was “below the threshold”, the pKd (O00560) was “below the threshold” and the pKd (O15021) was “below the threshold”. The pKd (Q9UDY2) was “below the threshold”, the pKd (Q9UMS6) was “below the threshold” and the pKd (Q9NR12) was “below the threshold”. The pKd (O60759) was “below the threshold”, the pKd (Q8IUC4) was “below the threshold” and the pKd (Q5TCQ9) was “below the threshold”. The pKd (Q12923) was “below the threshold”, the pKd (Q13368) was “below the threshold” and the pKd (Q13009) was “below the threshold”. For the same binder, the pKd (Q9ULJ8) was “below the threshold”, the pKd (Q92614) was “below the threshold” and the pKd (Q9Y3R0) was “below the threshold”. The pKd (Q96JB8) was “below the threshold”, the pKd (Q9P227) was “below the threshold” and the pKd (Q9H190) was “below the threshold”. For the same binder, the pKd (Q8TDM6) was “below the threshold”.

With RLQRRRETQV [HPV18-E6, P06463] the pKd (LNX1_4, Q8TBB1; [2]) was 4.03 and the pKd (LNX2_1, Q8N448; [2]) was “below the threshold”.

For SSLQSLETSV [ATP2B4, P23634], the pKd (Q9C0E4) was “below the threshold”, the pKd (Q6ZWJ1) was “below the threshold” and the pKd (Q9NPB6) was “below the threshold”. For the same binder, the pKd (Q70Z35) was “below the threshold”, the pKd (Q96SB3) was “below the threshold” and the pKd (O43166) was “below the threshold”. For the same binder, the pKd (O75970) was “below the threshold”, the pKd (Q96FS4) was “below the threshold” and the pKd (Q8TB45) was “below the threshold”. The pKd (Q8TEW0) was “below the threshold”, the pKd (O00560) was “below the threshold” and the pKd (O15021) was “below the threshold”. For the same binder, the pKd (Q9UDY2) was “below the threshold”, the pKd (Q9UMS6) was “below the threshold” and the pKd (Q9NR12) was “below the threshold”. The pKd (O60759) was “below the threshold”, the pKd (Q8IUC4) was “below the threshold” and the pKd (Q5TCQ9) was “below the threshold”. For the same binder, the pKd (Q12923) was “below the threshold”, the pKd (Q13368) was “below the threshold” and the pKd (Q13009) was “below the threshold”. For the same binder, the pKd (Q9ULJ8) was “below the threshold”, the pKd (Q92614) was “below the threshold” and the pKd (Q9Y3R0) was “below the threshold”. For the same binder, the pKd (Q96JB8) was “below the threshold”, the pKd (Q9P227) was “below the threshold” and the pKd (Q9H190) was “below the threshold”. The pKd (Q8TDM6) was “below the threshold”.
